Positions count from the first letter of the chain named.
T1: GDF15 mutant S231R (knuckle region), albumin fusion (human, UniProt Q99988 195-308)
T1 construct: not shown: albumin fusion partner
T1 chain: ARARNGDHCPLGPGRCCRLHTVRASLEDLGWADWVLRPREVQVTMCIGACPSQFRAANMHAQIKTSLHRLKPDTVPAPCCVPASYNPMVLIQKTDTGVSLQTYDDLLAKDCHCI

T2: GDF15 mutant L294R (knuckle region), albumin fusion (human, UniProt Q99988 195-308)
T2 construct: not shown: albumin fusion partner
T2 chain: T1 chain with R37S, L100R

T3: Human GDF15 native: naturally produced human GDF15 purchased from Peprotech (human, UniProt Q99988 195-308)
T3 construct: Bought protein
T3 sequence: T1 chain with R37S

T4: Cyno His-GDF15: HIS-tagged cyno GDF15 (cynomolgus, UniProt G7PWZ3 197-308, limits assumed)
T4 construct: not shown: His tag
T4 sequence (looked up): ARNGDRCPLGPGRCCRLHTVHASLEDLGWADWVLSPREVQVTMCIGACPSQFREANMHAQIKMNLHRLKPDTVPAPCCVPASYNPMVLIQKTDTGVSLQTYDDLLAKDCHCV

T5: Rat GDF15 HIS: HIS-tagged rat GDF15 (rat, UniProt Q9Z0J6 189-303, limits assumed)
T5 construct: also called Rat His-GDF15; not shown: His tag
T5 sequence (looked up): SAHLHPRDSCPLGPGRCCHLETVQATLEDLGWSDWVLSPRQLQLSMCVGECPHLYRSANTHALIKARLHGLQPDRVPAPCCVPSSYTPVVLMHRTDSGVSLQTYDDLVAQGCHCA

T6: Mouse His-GDF15: HIS-tagged mouse GDF15 (mouse, UniProt Q9Z0J7 189-303)
T6 construct: not shown: His tag
T6 sequence (looked up): T5 sequence (looked up) with L4A, L63Q, R75K, Q110R

T7: Human His-GDF15: HIS-tagged human GDF15 (human, UniProt Q99988 195-308)
T7 construct: not shown: His tag
T7 sequence: T1 chain with R37S

T8: GDF15 mutant I285R (knuckle region), albumin fusion (human, UniProt Q99988 195-308)
T8 construct: not shown: albumin fusion partner
T8 chain: T1 chain with R37S, I91R

T9: GDF15 mutant W228R (wrist region), albumin fusion (human, UniProt Q99988 195-308)
T9 construct: not shown: albumin fusion partner
T9 chain: T1 chain with W34R, R37S

T10: GDF15 mutant M253R (wrist region), albumin fusion (human, UniProt Q99988 195-308)
T10 construct: not shown: albumin fusion partner
T10 chain: T1 chain with R37S, M59R

T11: GDF15 mutant Q247R (wrist region), albumin fusion (human, UniProt Q99988 195-308)
T11 construct: not shown: albumin fusion partner
T11 chain: T1 chain with R37S, Q53R

T12: GDF15 mutant S278R (back-of-hand), albumin fusion (human, UniProt Q99988 195-308)
T12 construct: not shown: albumin fusion partner
T12 chain: T1 chain with R37S, S84R

T13: GDF15 mutant D289R (finger tip region), albumin fusion (human, UniProt Q99988 195-308)
T13 construct: not shown: albumin fusion partner
T13 chain: T1 chain with R37S, D95R

B1: ABGDF15-F (antibody, human IgG1, lambda, V domains shown)
VH: EVQLVQSGAEVKKPGESLKISCKGSGYSFTSYWIGWVRQMPGKGLEWMGVIDPSGSYTIYSPSFQGQVTISADKSISTAYLQWSSLKASDTAMYYCARYGRYGTYFDYWGQGTLVTVSS
VL: QSVLTQPPSVSGAPGQRVTISCSGSSSNIGVLYVNWYQQLPGTAPKLLIYSNDNRPSGVPDRFSGSKSGTSASLAITGLQAEDEADYYCQSWDSSSNYVFGGGTKLTVLG
notes: captured through anti-human Fc in the Biacore assay
B2: ABGDF15-B (antibody, human IgG1, lambda, V domains shown)
VH: QVQLVQSGAEVKKPGSSVKVSCKASGGTFRSYAVSWVRQAPGQGLEWMGGIIPIFGTANYAQKFQGRVTITADESTSTAYMELSSLRSEDTAVYYCARGPIIMGYQFGLFDHWGQGTLVTVSS
VL: SYELTQPLSVSVALGQTARITCSGDNIGSHIVSWYQQKPGQAPVLVIYDKSNRPSGIPERFSGSNSGNTATLTISRAQAGDEADYYCQTWDSIGSVVFGGGTKLTVLG
notes: as for B1
B3: ABGDF15-C (antibody, human IgG1, lambda, V domains shown)
VH: B2 VH
VL: B2 VL with L8P, A13S, L14P, R19S, A42S, R76G, A77T, G80M
notes: as for B1
B4: ABGDF15-D (antibody, human IgG1, lambda, V domains shown)
VH: B1 VH with S54D
VL: B1 VL
notes: as for B1
B5: ABGDF15-E (antibody, human IgG1, lambda, V domains shown)
VH: B1 VH with S54G
VL: B1 VL
notes: as for B1

Molecular target: T1, GDF15 mutant S231R (knuckle region), …
Test: direct ELISA: albumin fusion GDF15 mutant coated on the plate, serially diluted antibody, anti-human IgG-HRP detection
Method: (§1) Antibody epitope was determined by a direct ELISA method with GDF15 mutants. Albumin fusion GDF15 mutants were coated in wells of a 96-well EIA plate. After blocking, serially diluted anti-hGDF15 human antibodies were added to the GDF15-coated wells, followed by incubation at an ambient temperature for a few hours. Antibody binding was detected using an anti-human IgG antibody conjugated with horseradish peroxidase (HRP) and HRP substrate.

| binding result | Binder |
| --- | --- |
| binds | B1 |

Molecular target: T2, GDF15 mutant L294R (knuckle region), …
Test: as above
Method: as §1

| binding result | Binder |
| --- | --- |
| binds | B2 |
| binds | B3 |

What follows are binders tested against T3, Human GDF15 native: naturally produced … (assay: Biacore SPR, IgG captured via anti-human Fc, GDF15 in flow).
Method: (§2) Biacore assay is based on surface plasmon resonance (SPR) and were used to determine the binding affinity of antibodies to GDF15.
(§3) Anti-human Fc capture antibody was immobilized at 0.5 μg/ml on CMS chip in all four flow cells to achieve 8000 to 12,000 resonance units (RU) on the surface. Anti-hGDF15 antibodies were captured at flow rate […], at 0.25 to 0.5 μg/ml on the chip to get about 30 RU in flow cells 2, 3 and 4. GDF15 ligand was flowed at […] over captured antibodies and reference flow cell 1 for 600 and 1200 seconds contact time. Eight doses serially diluted 1 to 2, ranging from 20 to 0.156 nM, were tested. All cycles were repeated twice, regenerated between cycles with 3M MgCl₂ at flow […], 20 seconds contact time. Data were normalized by subtracting reference flow cell results. Data were fit with 1:1 Kinetics model with RI (bulk refractive index) set constant at 0.

| Kd [nM] | koff [s⁻¹] | kon [M⁻¹ s⁻¹] | Binder |
| --- | --- | --- | --- |
| 0.115 | 0.000389 | 3.38e+06 | B2 |
| 0.0656 | 0.000388 | 5.92e+06 | B3 |
| 0.0368 | 0.000696 | 1.89e+07 | B1 |

Each binder was assayed against T4, Cyno His-GDF15: HIS-tagged cyno GDF15 in the same assay as above.
Method: as §2, §3

| Kd [nM] | koff [s⁻¹] | kon [M⁻¹ s⁻¹] | Binder |
| --- | --- | --- | --- |
| 0.0836 | 0.000461 | 5.52e+06 | B2 |
| 0.065 | 0.000322 | 4.96e+06 | B3 |
| 0.0141 | 0.000236 | 1.67e+07 | B4 |
| 0.035 | 0.00044 | 1.26e+07 | B1 |
| 0.0303 | 0.00038 | 1.26e+07 | B5 |

The binders below were run against T5, Rat GDF15 HIS: HIS-tagged rat GDF15 in the same assay as above.
Method: as §2, §3

| Kd [nM] | koff [s⁻¹] | kon [M⁻¹ s⁻¹] | Binder |
| --- | --- | --- | --- |
| 0.097 | 0.00052 | 5.36e+06 | B2 |
| 0.0618 | 0.000483 | 7.81e+06 | B3 |
| 0.0281 | 0.000456 | 1.62e+07 | B4 |
| 0.0485 | 0.000538 | 1.11e+07 | B1 |
| 0.0396 | 0.000428 | 1.08e+07 | B5 |

The binders below were run against T6, Mouse His-GDF15: HIS-tagged mouse GDF15 in the same assay as above.
Method: as §2, §3

| Kd [nM] | koff [s⁻¹] | kon [M⁻¹ s⁻¹] | Binder |
| --- | --- | --- | --- |
| 0.237 | 0.000626 | 2.64e+06 | B2 |
| 0.116 | 0.000505 | 4.37e+06 | B3 |
| 0.0457 | 0.000509 | 1.11e+07 | B4 |
| 0.0964 | 0.000584 | 6.05e+06 | B1 |
| 0.079 | 0.000535 | 6.78e+06 | B5 |

What follows are binders tested against T7, Human His-GDF15: HIS-tagged human GDF15 in the same assay as above.
Method: as §2, §3

| Kd [nM] | koff [s⁻¹] | kon [M⁻¹ s⁻¹] | Binder |
| --- | --- | --- | --- |
| 0.0614 | 0.00054 | 8.8e+06 | B2 |
| 0.0422 | 0.000468 | 1.11e+07 | B3 |
| 0.0115 | 0.00048 | 4.19e+07 | B1 |

What follows are binders tested against T3, Human GDF15 native: naturally produced … (assay: Biacore SPR (rounded from Table 2, human GDF15 native)).
Method: as §3

| Kd [nM] | Binder |
| --- | --- |
| 0.115 | B2 |
| 0.066 | B3 |
| 0.037 | B1 |

Molecular target: T8, GDF15 mutant I285R (knuckle region), …
Test: direct ELISA on coated albumin-fusion GDF15 mutant
Method: as §1

| binding result | Binder |
| --- | --- |
| no binding | B2 |
| no binding | B3 |
| no binding | B1 |

Molecular target: T1, GDF15 mutant S231R (knuckle region), …
Test: direct ELISA on coated albumin-fusion GDF15 mutant
Method: as §1

| binding result | Binder |
| --- | --- |
| no binding | B2 |
| no binding | B3 |

Molecular target: T2, GDF15 mutant L294R (knuckle region), …
Test: direct ELISA on coated albumin-fusion GDF15 mutant
Method: as §1

| binding result | Binder |
| --- | --- |
| no binding | B1 |

Molecular target: T9, GDF15 mutant W228R (wrist region), …
Test: direct ELISA on coated albumin-fusion GDF15 variant
Method: as §1

| binding result | Binder |
| --- | --- |
| binds | B2 |
| binds | B3 |
| binds | B1 |

Molecular target: T10, GDF15 mutant M253R (wrist region), …
Test: as above
Method: as §1

| binding result | Binder |
| --- | --- |
| binds | B2 |
| binds | B3 |
| binds | B4 |
| binds | B1 |
| binds | B5 |

Molecular target: T11, GDF15 mutant Q247R (wrist region), …
Test: as above
Method: as §1

| binding result | Binder |
| --- | --- |
| binds | B2 |
| binds | B3 |
| binds | B4 |
| binds | B1 |
| binds | B5 |

Molecular target: T12, GDF15 mutant S278R (back-of-hand), …
Test: as above
Method: as §1

| binding result | Binder |
| --- | --- |
| binds | B2 |
| binds | B3 |
| binds | B1 |

Molecular target: T13, GDF15 mutant D289R (finger tip region), …
Test: as above
Method: as §1

| binding result | Binder |
| --- | --- |
| binds | B2 |
| binds | B3 |
| binds | B1 |
